Measured values taken from publication PMC7840129, “Structural basis for heme-dependent NCoR binding to the transcriptional repressor REV-ERBβ” (Science Advances, 2021).
Where two headings read alike, the source gives them in different places.

T1: heme-bound REV-ERBβ LBD (Homo sapiens, UniProt Q14995)
T1 construct: The human REV-ERBβ LBD (residues 381 to 579) was previously cloned; 6xHis with 3C protease cleavage site (N, cleaved yes); made in house; host or cells: E. coli BL21(DE3)
T1 sequence (Q14995 381-579): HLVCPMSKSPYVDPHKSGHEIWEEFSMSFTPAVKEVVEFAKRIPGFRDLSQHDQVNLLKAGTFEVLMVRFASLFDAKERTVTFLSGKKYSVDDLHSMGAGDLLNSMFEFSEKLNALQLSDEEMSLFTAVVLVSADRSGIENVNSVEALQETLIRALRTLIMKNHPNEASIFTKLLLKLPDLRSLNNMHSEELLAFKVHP

T2: Apo REV-ERBβ LBD (Homo sapiens, UniProt Q14995)
T2 construct: The human REV-ERBβ LBD (residues 381 to 579) was previously cloned; 6xHis with 3C protease cleavage site (N, cleaved yes); made in house; host or cells: E. coli BL21(DE3)
T2 sequence (Q14995 381-579): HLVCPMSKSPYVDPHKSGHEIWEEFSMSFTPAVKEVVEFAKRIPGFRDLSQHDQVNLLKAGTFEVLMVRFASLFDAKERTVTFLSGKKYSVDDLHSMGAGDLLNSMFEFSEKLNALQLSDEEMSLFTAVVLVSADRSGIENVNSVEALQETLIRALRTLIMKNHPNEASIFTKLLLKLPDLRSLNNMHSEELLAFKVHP


Experiments:
Format in all cases: binding
heme-bound REV-ERBβ LBD [1] = target: T1, heme-bound REV-ERBβ LBD; test: ITC, NCoR ID peptides with heme-bound REV-ERBβ LBD; conditions: for TΔS: pH 7.4, T constant at 25°C; for thermodynamic profile of peptide binding (in words), + heme: heme-bound LBD; for effect of heme on LBD affinity for peptide (in words): heme-bound vs apo LBD
Protocol: NCoR RID mutants were generated by site-directed mutagenesis: The ID1 CoRNR box motif was mutated from [sequence] to [sequence] (ΔID1 and ΔID1ΔID2), and the ID2 CoRNR box motif was mutated from LEDIIRKAL to TEDTTRKAL (ΔID2 and ΔID1ΔID2), as these mutations were previously reported to disrupt CoRNR box binding ([10], [30]). Heme (Sigma-Aldrich, no. 51280) was prepared either as a 1 mM stock in dimethyl sulfoxide (DMSO) stored at 4°C or 50 mM stock in 0.2 M NaOH (solutions prepared in 0.2 M NaOH were always made fresh immediately before the experiment), where indicated. […] Human embryonic kidney (HEK) 293T cells (American Type Culture Collection, no. CRL-11268) were cultured in Dulbecco’s modified eagle medium (DMEM) supplemented with 10% fetal bovine serum, 2 mM L-glutamine, and 1% penicillin-streptomycin at 37°C and 5% CO2 under standard culture conditions. The pcDNA3.1^+ expression vector containing full-length human REV-ERBβ ([31]) and the pGL3-Bmal1-luciferase construct containing the Bmal1 promoter (−816 to +99 of the mouse Bmal1 promoter region) were used in HEK293T cell transfections. Site-directed mutagenesis was performed to mutate the proximal RORE (pRORE mutant), distal RORE (dRORE mutant), or both (p/dRORE mutant) in the pGL3-Bmal1-luciferase construct based on a previous study ([6]) where the ROREs were mutated to disrupt REV-ERBα activity.
LBD in the syringe was titrated into ID peptide in the sample cell at 25°C with a 60-s delay between injections (2-μl intervals) with a mixing speed of 1200 rpm for a total of 20 injections (or 2 molar equivalents of LBD), unless otherwise noted below.

Apo REV-ERBβ LBD = target: T2, Apo REV-ERBβ LBD; test: ITC, NCoR RID constructs with apo REV-ERBβ LBD; conditions: WT RID; for Kd: LBD 150 μM (2 × 20 injections) into 15 μM RID, pH 7.4, 25°C, two nonsymmetric sites, microscopic K model
Protocol: (§1) Human REV-ERBβ LBD was expressed in BL21(DE3) Escherichia coli cells with an N-terminal hexahistidine (6xHis) tag separated by a 3C protease cleavage site. Expression was performed using auto-induction media: Cells were grown at 37°C for 5 hours, 30°C for 1 hour, and 18°C for 16 hours before harvesting by centrifugation. Pellets were resuspended in potassium phosphate lysis buffer [40 mM potassium phosphate (pH 7.4), 500 mM KCl, 15 mM imidazole, and 1 mM dithiothreitol (DTT)] supplemented with leupeptin, pepstatin A, lysozyme, and deoxyribonuclease (DNase) I and sonicated on ice. […] A 5-ml aliquot of 6xHis-tagged protein was purified by size exclusion chromatography using a Superdex 75 column equilibrated in time-resolved fluorescence energy transfer (TR-FRET) assay buffer [20 mM potassium phosphate (pH 7.4), 50 mM KCl, and 0.5 mM EDTA]; purified aliquots were stored at −80°C for TR-FRET assays. To cleave the 6xHis tag from the remaining protein, it was incubated overnight with 3C protease (generated in-house) via dialysis; then, protein was reloaded onto the HisTrap columns, and the flow-through was collected. Last, aggregates were removed by size exclusion chromatography using a Superdex 75 column and Hepes gel filtration buffer [20 mM Hepes (pH 7.4), 50 mM KCl, and 0.5 mM EDTA]. Greater than 95% purity was confirmed by SDS-PAGE. Protein was aliquoted and stored at −80°C.
(§2) ITC experiments were performed using a MicroCal iTC200. All experiments were solvent-matched and contained 0.1% DMSO (peptide vehicle) and 0.2% 0.2 M solution of NaOH (heme vehicle) final concentrations. NITPIC software ([37]) was used to calculate baselines and integrate curves and prepare experimental data for fitting in SEDPHAT, which was used to generate final binding affinity and thermodynamic parameter measurements ([38]).Final figures were exported to GUSSI for publication-quality figure preparation ([39]).
[…] REV-ERBβ LBD in the syringe was titrated into the RID in the sample cell as described above, with the exception that a total of 4 molar equivalents were titrated over 20 injections. […] For apo LBD into WT RID, data were fit to A + B ↔ AB + B ↔ BA + A ↔ BAB, with two nonsymmetric sites, microscopic K model in SEDPHAT. For apo LBD into ΔID2, data were fit to an A + B ↔ AB hetero-association model in SEDPHAT. For heme-bound LBD into WT RID, data were fit to an A + B ↔ AB hetero-association model in SEDPHAT.
NCoR RID constructs (including WT, ΔID1, ΔID2, and ΔID1ΔID2) were transformed into BL21(DE3) E. coli cells, which were grown in 2 liters of Terrific Broth media [yeast extract (24 g/liter), tryptone (12 g/liter), KH2PO4 ([…]), K2HPO4 ([…]), and glycerol (4 ml/liter)] at 37°C until OD600 reached 0.7 to 0.8. Expression was induced with 0.75 mM IPTG for 2 hours at 37°C before cells were harvested by centrifugation. Pellets were washed 1× with phosphate-buffered saline and stored at −80°C until purification. Pellets were resuspended on ice in Hepes lysis buffer [25 mM Hepes (pH 7.4), 150 mM NaCl, 2 M urea, and 15 mM imidazole] supplemented with 1 mM DTT, pepstatin A, leupeptin, lysozyme, DNase I, phenylmethylsulfonyl fluoride, and 0.1% Tween 20, and cell slurry was sonicated on ice. Lysed cells were centrifuged at 20,000g for 30 min at 4°C, and soluble lysate was filtered before IMAC purification using 2 × 5 ml HisTrap columns (GE Healthcare) affixed to an ÄKTA pure; elution buffer was 25 mM Hepes (pH 7.4), 150 mM NaCl, and 500 mM imidazole. Fractions were pooled; additional protease inhibitors were added, and protein was dialyzed against 25 mM Hepes (pH 7.0), 150 mM NaCl, and 1 mM DTT with Tobacco etch virus (TEV) protease to cleave the Trx-6xHis tag at 4°C overnight. Cleaved protein was reloaded on HisTrap columns and eluted with 50 mM bis-tris (pH 6.7), 150 mM NaCl, and 1 mM DTT. […]

heme-bound REV-ERBβ LBD [2] = target: T1, heme-bound REV-ERBβ LBD; test: ITC, NCoR RID constructs with heme-bound REV-ERBβ LBD
Protocol: as §1, §2
NCoR RID constructs (WT, ΔID1, ΔID2, or ΔID1ΔID2) were prepared in assay buffer at 15 μM, and REV-ERBβ LBD was prepared at 300 μM. REV-ERBβ LBD in the syringe was titrated into the RID in the sample cell as described above, with the exception that a total of 4 molar equivalents were titrated over 20 injections. […] For apo LBD into WT RID, data were fit to A + B ↔ AB + B ↔ BA + A ↔ BAB, with two nonsymmetric sites, microscopic K model in SEDPHAT. For apo LBD into ΔID2, data were fit to an A + B ↔ AB hetero-association model in SEDPHAT. For heme-bound LBD into WT RID, data were fit to an A + B ↔ AB hetero-association model in SEDPHAT.
NCoR RID constructs (including WT, ΔID1, ΔID2, and ΔID1ΔID2) were transformed into BL21(DE3) E. coli cells, which were grown in 2 liters of Terrific Broth media [yeast extract (24 g/liter), tryptone (12 g/liter), KH2PO4 ([…]), K2HPO4 ([…]), and glycerol (4 ml/liter)] at 37°C until OD600 reached 0.7 to 0.8. Expression was induced with 0.75 mM IPTG for 2 hours at 37°C before cells were harvested by centrifugation. Pellets were washed 1× with phosphate-buffered saline and stored at −80°C until purification. Pellets were resuspended on ice in Hepes lysis buffer [25 mM Hepes (pH 7.4), 150 mM NaCl, 2 M urea, and 15 mM imidazole] supplemented with 1 mM DTT, pepstatin A, leupeptin, lysozyme, DNase I, phenylmethylsulfonyl fluoride, and 0.1% Tween 20, and cell slurry was sonicated on ice. […]

[3] = +Heme LBD, pH 7.4, 25°C, 95% CI
[4] = +Heme LBD, WT RID, 25°C, A + B ↔ AB model, 95% CI

ΔG, free energy of binding (heme-bound REV-ERBβ LBD [1]; [3]) [kcal/mol]	ΔH, enthalpy of binding (heme-bound REV-ERBβ LBD [1]; [3]) [kcal/mol]	TΔS (heme-bound REV-ERBβ LBD [1]; +Heme LBD, 95% CI) [kcal/mol]	thermodynamic profile of peptide binding (in words), + heme (heme-bound REV-ERBβ LBD [1])	effect of heme on LBD affinity for peptide (in words) (heme-bound REV-ERBβ LBD [1])	Kd (Apo REV-ERBβ LBD; 95% CI, read-out: KD, Site 1) [nM]	Kd (Apo REV-ERBβ LBD; 95% CI, read-out: KD, Site 2) [nM]	TΔS, Site 1 (Apo REV-ERBβ LBD; site 1, 25°C, 95% CI) [kcal/mol]	ΔG, Site 1 (Apo REV-ERBβ LBD; site 1, 25°C, 95% CI) [kcal/mol]	ΔH, Site 1 (Apo REV-ERBβ LBD; site 1, 25°C, 95% CI) [kcal/mol]	TΔS, Site 2 (Apo REV-ERBβ LBD; site 2, 25°C, 95% CI)	ΔG, Site 2 (Apo REV-ERBβ LBD; site 2, 25°C, 95% CI) [kcal/mol]	ΔH, Site 2 (Apo REV-ERBβ LBD; site 2, 25°C, 95% CI) [kcal/mol]	TΔS (heme-bound REV-ERBβ LBD [2]; [4]) [kcal/mol]	ΔG (heme-bound REV-ERBβ LBD [2]; [4]) [kcal/mol]	ΔH (heme-bound REV-ERBβ LBD [2]; [4]) [kcal/mol]	Kd (heme-bound REV-ERBβ LBD [2]; +Heme LBD, WT RID, LBD 300 μM into 15 μM RID, pH 7.4, 25°C, A + B ↔ AB hetero-association model, 95% CI) [nM]	RID binding to heme-bound LBD (in words) (heme-bound REV-ERBβ LBD [2]; heme-bound LBD, RID mutants and WT)	Molecule	LBD:RID stoichiometry (Apo REV-ERBβ LBD)
-7.7	1.7	9.3	entropically driven and endothermic	decreased LBD affinity	–	–	–	–	–	–	–	–	–	–	–	–	–	Ac-RTHRLITLADHICQIITQDFARN-NH2 [NCoR ID1 peptide]	–
–	3.0	10.7	entropically driven and endothermic	increased LBD affinity	–	–	–	–	–	–	–	–	–	–	–	–	–	CC[C@H](C)[C@H](NC(=O)[C@H](CC(=O)O)NC(=O)[C@H](CCC(=O)O)NC(=O)[C@H](CC(C)C)NC(=O)CNC(=O)[C@H](CC(C)C)NC(=O)[C@H](CC(N)=O)NC(=O)[C@H](CO)NC(=O)[C@H](C)NC(=O)[C@@H]1CCCN1C(=O)[C@H](CC(=O)O)NC(C)=O)C(=O)N[C@H](C(=O)N[C@@H](CCCNC(=N)N)C(=O)N[C@@H](CCCCN)C(=O)N[C@@H](C)C(=O)N[C@@H](CC(C)C)C(=O)N[C@@H](CCSC)C(=O)NCC(=O)N[C@@H](CO)C(=O)N[C@@H](Cc1ccccc1)C(=O)N[C@@H](CC(=O)O)C(=O)N[C@@H](CC(=O)O)C(=O)N[C@@H](CCCCN)C(N)=O)[C@@H](C)CC [NCoR ID2 peptide]	–
–	–	–	–	–	12	740	2.5	-10.8	-8.3	12 (95% CI: 11 to13) kcal/mol	-8.4	3.2	11.2	-9.6	1.7	99	must involve positive cooperativity	WT RID: mouse NCoR RID (residues 1942 to 2208 in the X50 splice variant) (protein, UniProt Q60974 1942-2208, looked up, fragment, X50 splice variant) TITAANFIDVIITRQIASDKDARERGSQSSDSSSSLSSHRYETASDAIEVISPASSPAPPQEKPQAYQPDMVKANQAENESTRQYEGPLHHYRSQQESPSPQQQPPLPPSSQSEGMGQVPRTHRLITLADHICQIITQDFARNQVPSQASTSTFQTSPSALSSTPVRTKTSSRYSPESQSQTVLHPRPGPRVSPENLVDKSRGSRPGKSPERSHIPSEPYEPISPPQGPAVHEKQDSMLLLSQRGVDPAEQRSDSRSPGSISYLPSF	two apo LBDs interact with one RID, most likely with positive cooperativity
